Results taken from paper PMC5009744.

Legend:
[1] = biological target: eIF5B Domain-4 (eIF5B-D4) (human); assay: fluorescence polarisation
[2] = biological target: eIF5B-D34 (eIF5B domains D3 and D4) (human); assay: fluorescence polarisation
[3] = biological target: eIF1AΔC (eIF1A missing the entire 26-residue C-terminal tail) (human); assay: NMR titration
[4] = biological target: fluorescein-labeled synthetic eIF1A-CT7 peptide (human); assay: fluorescence polarisation

Chain of eIF5B Domain-4 (eIF5B-D4) (human) (O60841 whole entry, the tested form may be a part): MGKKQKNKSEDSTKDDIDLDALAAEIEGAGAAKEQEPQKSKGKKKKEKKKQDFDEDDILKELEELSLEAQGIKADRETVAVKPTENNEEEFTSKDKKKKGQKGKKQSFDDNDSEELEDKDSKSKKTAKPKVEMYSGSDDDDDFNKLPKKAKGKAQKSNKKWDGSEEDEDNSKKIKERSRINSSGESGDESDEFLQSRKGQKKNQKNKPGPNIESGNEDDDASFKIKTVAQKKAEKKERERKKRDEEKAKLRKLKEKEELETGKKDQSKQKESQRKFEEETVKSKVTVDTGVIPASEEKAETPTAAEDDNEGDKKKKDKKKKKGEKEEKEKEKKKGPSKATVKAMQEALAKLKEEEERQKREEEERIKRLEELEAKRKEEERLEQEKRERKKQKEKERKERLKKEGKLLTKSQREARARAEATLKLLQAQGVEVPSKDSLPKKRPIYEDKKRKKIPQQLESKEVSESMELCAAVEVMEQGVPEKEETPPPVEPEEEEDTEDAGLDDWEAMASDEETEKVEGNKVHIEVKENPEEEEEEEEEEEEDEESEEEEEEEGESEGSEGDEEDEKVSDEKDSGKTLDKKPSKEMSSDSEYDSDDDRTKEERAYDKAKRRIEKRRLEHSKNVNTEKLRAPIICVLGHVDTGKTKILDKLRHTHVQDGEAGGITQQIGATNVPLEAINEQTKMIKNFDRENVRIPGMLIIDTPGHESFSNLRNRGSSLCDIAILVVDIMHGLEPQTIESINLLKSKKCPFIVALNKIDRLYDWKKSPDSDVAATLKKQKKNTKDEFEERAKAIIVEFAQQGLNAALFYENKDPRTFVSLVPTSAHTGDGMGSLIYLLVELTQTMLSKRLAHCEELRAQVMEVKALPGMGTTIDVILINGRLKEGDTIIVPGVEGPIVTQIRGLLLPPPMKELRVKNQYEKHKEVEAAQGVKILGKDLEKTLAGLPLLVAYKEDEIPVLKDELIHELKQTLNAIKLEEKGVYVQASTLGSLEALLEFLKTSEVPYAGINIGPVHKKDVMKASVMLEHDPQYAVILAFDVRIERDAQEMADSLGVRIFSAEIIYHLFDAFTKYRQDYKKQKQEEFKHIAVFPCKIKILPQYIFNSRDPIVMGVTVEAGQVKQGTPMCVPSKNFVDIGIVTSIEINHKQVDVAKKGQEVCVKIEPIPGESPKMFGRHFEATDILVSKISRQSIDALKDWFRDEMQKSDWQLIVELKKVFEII
Chain of eIF5B-D34 (eIF5B domains D3 and D4) (human) (O60841 whole entry, the tested form may be a part): as above

Kd [1] [µM] | Kd [2] [µM] | Kd [3] [µM] | Kd [4] [µM] | Substance
12 | 18 | – | – | eIF1A C-terminal tail (eIF1A-CTT), 26 residues (peptide)
12 | 23 | – | – | eIF1A-CT16 (the 16 C-terminal residues in eIF1A) (peptide)
– | – | < 1000 | – | eIF5B Domain-3 (eIF5B-D3) (domain or fragment)
– | – | – | 12 | eIF5B Domain-4 (eIF5B-D4) (domain or fragment)
– | – | – | 27 | eIF5B-D34 (eIF5B domains D3 and D4) (domain or fragment)
39 | 41 | – | – | eukaryotic translation initiation factor 1A (eIF1A), full-length (from UniProt P47813 1-144) (natural protein)
